Source: article PMC8693863

Target: Myomaker (MYMK) (mouse (endogenous in primary myoblasts)) (UniProt Q9D1N4)
Assay: proximity ligation; Duolink PLA on primary mouse myoblasts fixed with 4% PFA, 24 h after DMSO (Ctrl) or ERKi; antibody pairs anti-TMEM8C + anti-CaMKII, or anti-CaMKII + anti-Rac1; mean fluorescent intensity normalized to nuclei number per field

Sequence of UniProt Q9D1N4 (Q9D1N4 whole entry): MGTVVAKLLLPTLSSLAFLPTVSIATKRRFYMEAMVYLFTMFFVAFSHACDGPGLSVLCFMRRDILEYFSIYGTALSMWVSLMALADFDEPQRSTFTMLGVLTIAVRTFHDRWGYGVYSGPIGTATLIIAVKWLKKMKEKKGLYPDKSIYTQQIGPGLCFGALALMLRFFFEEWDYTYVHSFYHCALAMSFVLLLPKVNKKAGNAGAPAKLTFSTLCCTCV

CaMKII (from UniProt Q6PHZ2 1-499) (natural protein)
fold increase of PLA signal mean fluorescent intensity, ERKi against DMSO control: 2.9 fold
